System: HCT116
Assay: MTT cytotoxicity test on HCT116
Format: cell-based, human
Conditions: continuous incubation over 72 h

B1: Ex. 3^a: fusion protein SEQ. No. 3: (TRAIL121-281)-MMP-UROKIN-(SEQ. No. 35, synthetic 15-amino acids lytic peptide) (protein)
chain: RVAAHITGTRGRSNTLSSPNSKNEKALGRKINSWESSRSGHSFLSNLHLRNGELVIHEKGFYYIYSQTYFRFQEEIKENTKNDKQMVQYIYKYTSYPDPILLMKSARNSCWSKDAEYGLYSIYQGGIFELKENDRIFVSVTNEHLIDMDHEASFFGAFLVGPLGLAGRVVRKLLLRLLKKLLRLLK
modifications: synthesized, fusion protein comprising: a fragment of TRAIL protein, synthetic 15-amino acids lytic peptid and cleavage site sequences recognized by urokinase and metalloprotease.
  IC50: 1.8785 µg/mL
